Tests used:
[1] = system: mouse primary spiral ganglion neurons; experiment: Reversal of FAM19A5-induced inhibition of neurite outgrowth; format: cell-based; details: 10 μM FAM19A5 protein co-treated with 100 nM antibody, 3 DIV
Procedure: Sprial ganglion neuron were cultured in culture media consisting of high-glucose (4.5 mg/mL) DMEM, 0.1 mg/ml penicillin, 0.1 mg/mL streptomycin, N2 supplement, and 10 µg/mL insulin and was designated here as “5K” because in this media, [K+]=5.4 mM. A depolarizing media, designated as “30K,” in which Na was replaced with equimolar K to raise [K] to 30 mM while maintaining osmolarity was also used.
Dissociated spiral ganglion cell cultures were prepared from postnatal day 4-5 (P4-5) cochleae and maintained using a procedure modified from the methods described by Bok et al., J Neurosci 23 (3): 777-87 (2003), which is incorporated herein by reference in its entirety. […]
Neurite outgrowth was quantified by measuring the total length of neurites per neuron. Neurons were stained with NF200 at either 2 or 3 DIV, and neurite lengths were measured using the Fiji (Image J). Individual neurons were manually selected, and neurite lengths were determined using the Simple Neurite Tracer plugin.
Briefly, mouse primary spiral ganglion neurons (cultured and processed as described in Example 11) were treated with a FAM19A5 protein (10 μM) alone or in combination with an anti-FAM19A5 antibody (1-30) (100 nM) at 0 DIV (day in vitro). […] Then, at 3 DIV, the neurons were stained for neurofilament protein (NF200) expression and the average neurite length quantified.

[2] = system: inner hair cells of mouse cochlear explants; experiment: Promotion of synaptogenesis (CtBP2 puncta); format: cell-based; details: antibody 1 μM
Procedure: Cochlear explant were cultured in medium consisting of plating media, which consist of Neurobasal media (Invitrogen), 1% N2 supplement, and 10 μg/mL Ampicillin with culture media with additional 1% FBS.
Postnatal day 4-5 (P4-5) C57BL/6 mice were sacrificed for inner ear dissection. Mouse head was bisected, and brain tissue was removed. Cochlea was carefully separated the from the extraneous bones in ice-cold HBSS (5 mM HEPES/1.3 mM CaCl2), 0.9 mM MgCl2, pH 7.4) or External solution (1.2 mM CaCl2), 1 mM MgCl2, 5 mM HEPES in HBSS). Then the stria vascularis and spiral bone plate was removed, and cochlea was cut into two to three sections. […]
Mouse cochlear explant cultures were treated with FAM19A5, FAM19A5 combined with a FAM19A5 antagonist (e.g., described herein, e.g., 1-30 antibody), or a FAM19A5 antagonist (e.g., described herein, e.g., 1-30 antibody) alone at 1 DIV to determine the level of synaptogenesis at 2 DIV by immunostaining CtBP2, a ribbon synapse marker. To quantify the number of CtBP2 puncta of individual inner hair cells, z-stack confocal images were exported in “multi-page” and the number of CtBP2 puncta from each individual inner hair cells were measured using ROI manger and multi-point tool from Fiji (Image J). Number of CtBP2 puncta from five individual inner hair cells were counted per image and 3 z-stack images were measured from each treatment group. […]

B1: 1-30: anti-FAM19A5 antibody, de-immunized variant of 3-2; VH SEQ ID NO: 235, VL SEQ ID NO: 240 (antibody, V domains shown)
VH: AVTLDESGGGLQTPGGALRLSCKASGFDFESFNMFWVRQAPGKGLEYVSQISSSEEDENYAPAVKGRATISRDNGQSTLYLQMNSLRAEDTGTYYCAKSSYDCPYGHCSSGVDSAGEIDAWGHGTEVIVSS
VL: ALTQPSSVSANPGETVKITCSGGGSEEEQYYYGWYQQKPGSAPVTLIYQDEERPSDIPSRFSGSTSGSTATLTITGVQAGDEADYYCGSWDSEDEDHFGAGTTLTVL
modifications: Low-PI VH, 1-30 VH, 1-17 VH, 1-32 VH, 4-11 VH, 6-10 VH; 1-30 VL
In the case of B1, the “neurite growth in FAM19A5-treated neurons” value [1] is reported as “less reduction in neurite growth and comparable to the neurons from the control group” and the “number of CtBP2 puncta within the inner hair cells vs control human IgG” value [2] is reported as “significant increase”.

From US20260265360A1, “USE OF ANTI-FAM19A5 ANTAGONISTS FOR TREATING HEARING DISORDERS” (NEURACLE SCIENCE CO., LTD., priority 2023, published 2026)
